Measured values as given in the nanobody polyreactivity screen of Harvey et al. (2022).

Test: yeast display, Sf9 membrane polyspecificity reagent, FACS + sequencing; frameworks hold sequencing errors
Outline: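 Galactose induction of a Saccharomyces cerevisiae BJ5465 synthetic nanobody display library ran 36–48 hours. The cells were then stained for 1 hour at 4 °C with 10% biotinylated, detergent-solubilized Sf9 membrane reagent, pulled down on streptavidin microbeads and FACS-sorted into low and high (top ~1%) gates on expression and reagent-binding fluorescence. Labels for polyreactivity follow the gate of origin.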

Row | Sequence | polyreactivity (PSR sort gate)
1 | QVQLVESGGGLVQAGGSLRLSCAASGRTFYYNAMGWYRQAPGKERELVATITSGGSTNYADSVKGRFTISRDYAKNTVYLQMNSLKPEDTAVDYCATTRYRTYADVNSRYGYWGQGTQVTVSS | low polyreactivity
2 | QVQLVESGGGLVQAGGSLRLSCAASGRTFYYNGMGWYRQAPGKERELVATITNGGSTNYADSVKGRFTISRDNAKNTVYLQMNSLKPEDTAVYYCAKTLASDCYDYWGQGTQVTVSS | low polyreactivity
3 | QVQLVESGGGLVQAGGSLRLSCAASGRTFYYYAKGWYRQAPGKERELVARISRCGSTNYADSVKGRFTISRDNAKNTVYLQMISLKPEDSAVYYCAAGWRGGRYRYFAYDYWGQGTQVTVSS | high polyreactivity
4 | QVQLVESGGGLVQAGGSLRLSCAASGRTFYYYAMGGYRQAPGKERELVAAIRGGGGSTYADSVKGRFTISRDNAKNTVYLQMNSLKPEDTAVYYCNVVRTGRYPGFLTFDYWGQGTQVTVSS | high polyreactivity
5 | QVQLVESGGGLVQAGGSLRLSCAASGRTFYYYAMGWHRQAPGKERELVARIRSGGSTNYADSVKGRFTISRDNAKNTVYLQMNSLKPEDTAVYYCAAVRPPTPSRRREDYWGQGTQVTVSS | low polyreactivity
6 | QVQLVESGGGLVQAGGSLRLSCAASGRTFYYYAMGWYRQAPGKEREFVAAIRFSGGNTYYADSVKGRFTISRDNAKNTVYLQMNSLKPEDTAVYYCAARRLLYKYWTGGPYDYWGQGTQVTVSS | high polyreactivity
7 | QVQLVESGGGLVQAGGSLRLSCAASGRTFYYYAMGWYRQAPGKERELVAAIRWSTGSTYYADSVKGRFTISRDNAKNTVYLQMNSLKPEDTAVYYCAADTWYIQWGYYWGQGTQVTVSS | low polyreactivity
8 | QVQLVESGGGLVQAGGSLRLSCAASGRTFYYYAMGWYRQAPGKERELVAAISSSTGRTYYADSVKGRFTISRDNAKNTVYLQMNSLKPEDTAVYYCAKYRVFGYQFDYWGQGTQVTVSS | high polyreactivity
9 | QVQLVESGGGLVQAGGSLRLSCAASGRTFYYYAMGWYRQAPGKERELVAAITSTGGSTYYADSVKGRFTISRDNAKNTVYLQMNSLKPDDTAVYYCAADQVWGYDSWGQGPQVTVSS | low polyreactivity
10 | QVQLVESGGGLVQAGGSLRLSCAASGRTFYYYAMGWYRQAPGKERELVASITSGDGTYYADSVKGRFTISRDNAKNTVYLQMNSLKPEDTAVYYCAADIFYKFSYYPWYPYRDYYYSGQGTQVTVSS | low polyreactivity
11 | QVQLVESGGGLVQAGGSLRLSCAASGRTFYYYAMGWYRQEPGKERELVAAISWSGGRTYYADSVKGRFTISRDNAKNTVYLQMNSLNPEDTAVYYCNAEPPRGYTVSSGGEMDYWGQGTQVTVSS | low polyreactivity
12 | QVQLVESGGGLVQAGGSLRLSCAASGRTFYYYAMVWYRQAPGKERELVAAINSGGSTNYADSVKGRFTISRDNAKNTVYLQMNSLKPEDTAVYYCAKRAYTTVYGPVNYGFNYWGQGTQVTVSS | low polyreactivity
13 | QVQLVESGGGLVQAGGSLRLSCAASGRTFYYYARGWYRQAPGKERELVAAINTRGVSTYYEDSVKGRFTISRDNAKNTVYLQMNSLKPEDTAVYYCNKGFSYGRDYWGQGTQVTVSS | high polyreactivity
14 | QVQLVESGGGLVQAGGSLRLSCAASGRTFYYYTMGWYRQAPGKERELVAAITHGGSTYYADSVKGRFTISRDNAKNTVYLQMNSLKPEDTAVYYCNAVYHYPYEYWGQGTQVTVSS | high polyreactivity
15 | QVQLVESGGGLVQAGGSLRLSCAASGRTFYYYTMGWYRQAPGQERELVAAISVSGGTTYYADSVKGRFTISRDNAKYSVYLQMNSLKPDDTAVYYCAAGDGWGRRYYWGQGTQVNVSS | high polyreactivity
16 | QVQLVESGGGLVQAGGSLRLSCAASGRTFYYYVMGWYRQAPGKERELVAAISARDGSTYYADSVKGRFTISRDNAKNTVYLQMNSLKPEDTAVYYCNVRALYTRRYDYWGQGTQVTVSS | high polyreactivity
17 | QVQLVESGGGLVQAGGSLRLSCAASGRTGVNAMGWYRQAPGKERGLVAAINTSVGRTYYADSVKGRFTISRDNAKNTVYLQMNSLKQEDTAVYYCNTDRLGAARYDYWGHGTQVTVSS | low polyreactivity
18 | QVQLVESGGGLVQAGGSLRLSCAASGRTIAAYAMGWYRQAPGKERELVAAISRSGGSTYYADSVKGRFTISRDNAKNTVYLQMNSLKPEDTAVYYCAAYYIVSSLFGYWGQGTQVTVSS | high polyreactivity
19 | QVQLVESGGGLVQAGGSLRLSCAASGRTIHFNTMGWYRQAPGKERELVAAIRWGGNTYYADSVKGRFTISRDNAKNTVYLQKNSLKPEDTAVYYCAADRWYYFLMYYWGQGTQVTVSS | low polyreactivity
20 | QVQLVESGGGLVQAGGSLRLSCAASGRTIKKYAMGWDRQAPGQEREFVAAITGSGGSTYYADSVKGRFTISRDNAKNTVYLQMNSLKPEDTAVYYCAAYAYGVWHSQDGGNYWGKGTQVTVSS | low polyreactivity
21 | QVQLVESGGGLVQAGGSLRLSCAASGRTIKRYAMGWYRQAPGKERELVATISRSGSSTYYADSVKGRFTISRDNAKNTVYLQMNSLIPEDTAVYYCNAYVPDIWVNGYDSWGQGTQVTVSS | high polyreactivity
22 | QVQLVESGGGLVQAGGSLRLSCAASGRTIKSNDMGWYRQAPGKERELVSAISRRGGSTYYADSVKGRFTISRDNAKNTVYLQMNSLKPEDTAVYYCAADLTFSYRQSAGRYSTYGYWGQGTQVTVSS | high polyreactivity

Row | Sequence | polyreactivity (PSR sort gate)
23 | QVQLVESGGGLVQAGGSLRLSCAASGRTINRYAMGWYRQAPGKERELVAAISTSGGTTYYADSVKGRFTISRDNAKNTVYLQMNSLKPEDTAVYYCNARALAYWGQGTQVTVSS | high polyreactivity
24 | QVQLVESGGGLVQAGGSLRLSCAASGRTINRYDMGWYRQAPGKERELVAAISTSGGTTYYADSVKGRFTISRDNAKNTVYLQMNSLKPEDTAVYYCNARALAYWGQGTKVTVSS | high polyreactivity
25 | QVQLVESGGGLVQAGGSLRLSCAASGRTIPIYAMGWYRQEPGKERYLVAAITYSGGSTYYADSVKGRFTISRDNAKNSVYLQMNSLKPEDTAVYYCAVDGTKPYWHQRYVYWGQGTQVTVSS | low polyreactivity
26 | QVQLVESGGGLVQAGGSLRLSCAASGRTIQYYTMGWYRQAPGKERELVAGITYRGSSTYYADSVKGRFTISRDNAKNTVYLQMNSLKPEDTAVYYCAAGYWAYVWYYYWGQGTQVTVSS | high polyreactivity
27 | QVQLVESGGGLVQAGGSLRLSCAASGRTIRGYTMGWYRQAPGKERELVATITKRGGSTTYADSVKGRFTISRDNAKNTVYLQMNSLKPEDTAVYYCNKDTITSTWTPYTSWFGYWGQGTQVTVSS | high polyreactivity
28 | QVQLVESGGGLVQAGGSLRLSCAASGRTIRLYGMGSYRQAPGKERELVAAITWSGGRTYYADSVKGRFTISRDNEKNTFYLQMNSLKPEDSAVYYCAAGNSSYGKPKYYYWGQGTQVTVSS | high polyreactivity
29 | QVQLVESGGGLVQAGGSLRLSCAASGRTIRSYAMGRSRQAPGKEREWVAAISWSGGRTYYADSVKGRFTISRDNAKYTVYLQMTSLKPEDTADYYCAARVSVGVPRYEYWGQGTQVTVSA | high polyreactivity
30 | QVQLVESGGGLVQAGGSLRLSCAASGRTISHNVMGWYIKAPGKERELVAAISRNGGRTYYADSVKGRFTISRDNAKNTVYLQMNSLKPEDTAVYYCAKRRSYFLHSYYSYGYWGQGTQVTVSS | high polyreactivity
31 | QVQLVESGGGLVQAGGSLRLSCAASGRTISINAMGWYRQAPGKERELVADISKSGGRTYYADSVKGRFTISRDNAKNTVYLQMNSLKPEDTAVYYCAKGAYYVPVIYHAVYSWGQGTQVTVSS | low polyreactivity
32 | QVQLVESGGGLVQAGGSLRLSCAASGRTISRYAMGWYRQAPGKERELVATITSGGSTNYADSVKGRFTISRDNAKNTLYLQMNSLKPEDTAVYYCNAQSWYIVPYDYWGQGTQVTVSS | low polyreactivity
33 | QVQLVESGGGLVQAGGSLRLSCAASGRTISYAMGWYRQAPGKERELVAAIRYRGGSTYYADSVKGRFTISRDNAKNTVYLQMNSQKPEDTAVYYCAAQDSYTPPILFRRGYLRYDYWGQGTQVTVSS | low polyreactivity
34 | QVQLVESGGGLVQAGGSLRLSCAASGRTIVIYAMGWYRQAPGKERELVAAIRSGGRTNYADSVKVRFTISRDNAKNTVYLQMNSLIPEDTAVYYCATRGWLRSGYDYWGQGTQVTVSS | high polyreactivity
35 | QVQLVESGGGLVQAGGSLRLSCAASGRTIWRYAMGWYRKAPGKERELVAAISWSGTSTYYADSVKGRFTISRDNAKNTVYLQMNSLKPEDTAVYYCAVAYPFYGKTLFSPQADYNYWGQGTQVTVSS | high polyreactivity
36 | QVQLVESGGGLVQAGGSLRLSCAASGRTIWTYVMGWYRQAPGKERELVAAISRSGSSTYYADSVKGRFTISRDNAKNTVYLQMNSLKPEDTAVYYCNKVDGTTLDDHYMDYWGQGTQVTVSS | low polyreactivity
37 | QVQLVESGGGLVQAGGSLRLSCAASGRTIYQYAMGWYRQAPGKERELVAAISRGGSTNYADSLKGRFTISRDNAKNTVYLQMNSLKPEDTAVYYCASWYKFLSLKRLYERDYWGQGTQVTVSS | high polyreactivity
38 | QVQLVESGGGLVQAGGSLRLSCAASGRTIYRYDMGWYRQSPGKERKFVAPISWSGGRTYYADSVKGRFTIARDNAKNTVYLQMNSLKPEDTAVYYCAAEYPWSVGYWRYGLDDYWGQGTQVSVSS | high polyreactivity
39 | QVQLVESGGGLVQAGGSLRLSCAASGRTIYSYAMVLNTQAPGKERELVAAISRRGGSTYYADSVKGRFTISRDNAKNTVYLQLNSLIPEDTAVYYCAKRYTPLPYKGIWYYYWGQGTQVTVSS | high polyreactivity
40 | QVQLVESGGGLVQAGGSLRLSCAASGRTLAHYTMGWYRQAPGKERELVAAITFSGGRTYYAHSVKGRFTISRDNAKNTVYLQMNSLKPEDTAVYYCAAPGRCYYRGDDYWGQGTQVTVSS | low polyreactivity
41 | QVQLVESGGGLVQAGGSLRLSCAASGRTLARNAMGWYRQAPGKERELVAGITSGGSTDYADSVKGRFTISRDNAKNTVYLQMNSLKPEDTAVYYCNRDAGPGGDYWGQGTQVTVSS | low polyreactivity
42 | QVQLVESGGGLVQAGGSLRLSCAASGRTLASNAMGWFRQSPGKERELVAAINRGGSTYYADSVKGRFTISRDNAMNTVYLQMNSLKPEDTAVYYCAVDRYRYPFDYWGQGTQVTVSS | low polyreactivity
43 | QVQLVESGGGLVQAGGSLRLSCAASGRTLDYNAMGLYRQAPGKERELVAAISWTGDSTYYADSVKGRFTISRDNAKNTVNLQMNSLKPEDTAVYYCAASYSRFVDWIGDPGYDYWGQGTQVTVSS | low polyreactivity
